Assay results as given in paper PMC4344939.

Target: Recombinant human galectin-1 (human) (UniProt P09382)
Experiment: SPR

UniProt P09382, sequence (P09382 whole entry): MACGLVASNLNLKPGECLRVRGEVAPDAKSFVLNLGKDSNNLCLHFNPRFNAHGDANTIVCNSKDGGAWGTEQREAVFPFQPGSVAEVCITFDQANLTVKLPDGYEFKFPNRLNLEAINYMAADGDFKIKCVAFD

Recombinant hemagglutinin (HA) from influenza A H1N1 (A/Puerto Rico/8/1934) (from UniProt P03452) (natural protein)
Kd: 425 nM
